The DeepSol protein solubility set

assay: soluble on expression in E. coli; label from the status in PepcDB or PDB records

Sequence | soluble on expression in E. coli
MSLDQFDCKVSATGGWDCSPLQNANANLPPRPAHTATSVSTAAAGSSVSGSGGETVEAEPTQRLVTESGGRALKSRSADYSHLDWIPREKLTAAQLAEIGPYCGGSYIEPVRPGMDDGAPSDESPTYVSAKASRYEQEKQIATLAGDVVLRQGSMQVEGDEANLHQLENRGELVGNVKLRDKGMLVVGDHAQVQLDNGEAQVDNAEYVIHKAHARGSALYAKRSENAIIMLKDGTYTRCEPSSNAWTLKGNNVKLNPATGFGTATNATLRVKDFPVFYTPYIYFPIDDRRQSGFLPPSFSSTSDTGFTLVTPYYFNLAPNYDATLYPRYMAKRGMMLEGEFRYLTHSSEGIVNAAYLNDKDDHREGFPDYSKDRWLYGLKNTTGLDSRWLAEVDYTRISDPYYFQDLDTDLGVGSTTYVNQRGTLTYRGDTFTGRLNAQAYQLATTTDVTPYDRLPQITFDGFLPYNPGGMQFTYGTEFVRFDRDLDENIYFNDDGSIRGKRPDASLQGLARATGDRMHLEPGMSLPMTRSWGYVTPTLKYLYTKYDLDLDSQGKTDLNKRDESFDSNQDRSLPLVKVDSGLYFDRDTTFAGTPFRQTLEPRAMYLYVPYKDQDSLPVFDTSEPSFSYDSLWRENRFTGKDRIGDANQLSLGVTSRFIEENGFERASISAGQIYYFRDRRVQLPGLTEKDLKRLNLDPSGLDNDSWRSPYAFAGQYRFNRDWRINSDFNWNPNTSRTESGSAIFHYQPEVDPGKVVNVGYRYRADARRFDSSRGTFRYGNENDIIKQHDFSVIWPLVPQWSVLARWQYDYNKNRTLEAFGGFEYDSCCWKLRLINRYWLDVDDDAFLVQSEKADRGIFLQIVLKGLGGIVGNKTEMFLDKGIQGYRQREEGHHHHHH | not soluble
MSLDQPVVGLITKTDTNPFFVKMKQGAEAAASKDGAKLITAAGKFDGDNASQVTAIENMMTAGAKAILITPSDTKAIVPSIKKARAAGVMVVALDTPTDPQDATDALFATDNFKAGVLIGKYAKAALNGKPAKIATLDLAPGVSVGVLRHNGFLEGFGVKEGDPSVVCSQDTRGDQAKGQTAMENCLQKSPDINVVYTINEPAAAGAYRALKAAGKDKSVMIVSIDGGCEGVRNVKAGAIAATSQQYPLKMASLGVTAGVEYAKTGKKVSGYQDTGVTLITDKPMAGIDSKDTKFGLDNCWGNEGHHHHHH | soluble
MSLDVISELVKKNGSKILLIVLDGLGGLPVKEGKTELELAKTPNLDKLVKNSATGLHIPVDWGITPGSGPGHLGLFGYDPIKYQIGRGILEALGLGIDVKDTDIAVRGNYATVEYRNGKPIVVDRRAGRIPTEENKRITAKLQEAIKEIDGVQVIIKPGMEHRLAIVFRFPEKLSPGSDAINDTDPQQVGKEPLEPKGENPNAEKVAEVVRKFIQRATEILRNEPKANYILLRGFSQKPDIPTMEERFGVKPCCIAVYPMYKGLASLVGMDVIEFEGSTIQDEIDTLKKVWNEYDYFFVHIKKTDSYGEDGNYEGKVSVIEDFDAHLPQFLELKPDVLAITGDHSTPSILKGHSWHPVPLLIHSPYVLGGTSERFTERECLKGELGIIPAVKITQLLLANALRLKKYGAEGHHHHHH | soluble
MSLDYDLLIKNGQTVNGMPVEIAIKEKKIAAVAATISGSAKETIHLEPGTYVSAGWIDDHVHCFEKMALYYDYPDEIGVKKGVTTVIDAGTTGAENIHEFYDLAQQAKTNVFGLVNISKWGIVAQDELADLSKVQASLVKKAIQELPDFVVGIKARMSRTVIGDNGITPLELAKQIQQENQEIPLMVHIGSAPPHLDEILALMEKGDVLTHCFNGKENGILDQATDKIKDFAWQAYNKGVVFDIGHGTDSFNFHVAETALREGMKAASISTDIYIRNRENGPVYDLATTMEKLRVVGYDWPEIIEKVTKAPAENFHLTQKGTLEIGKDADLTIFTIQAEEKTLTDSNGLTRVAKEQIRPIKTIIGGQIYDNEGHHHHHH | soluble
